Where a chain is given by its changes, count along the chain named. Each block holds one molecule with its values, some of them ahead of it.
Key:
[1] = tested on: Recombinant Human CYP19A1 Allozymes; experiment: CYP19A1 enzyme activity of recombinant allozymes (3H2O release from [1β3H]androst-4-ene-3,17-dione, COS-1 microsomes); format: biochemical; conditions: 20 nM androstenedione substrate, corrected for transfection efficiency, 6 independent transfections
[2] = tested on: Recombinant Human CYP19A1 Allozymes; experiment: Substrate kinetics: apparent Km of recombinant CYP19A1 allozymes with androstenedione; format: biochemical; conditions: androstenedione as substrate; COS-1 microsomes

% WT activity [1]: 72%
B1: Cys264: "a CYP19A1 polypeptide (Arg264Cys) having a cysteine at amino acid residue 264" (protein, UniProt P11511 1-503, looked up, variant R264C)
Aromatase: MVLEMLNPIHYNITSIVPEAMPAATMPVLLLTGLFLLVWNYEGTSSIPGPGYCMGIGPLISHGRFLWMGIGSACNYYNRVYGEFMRVWISGEETLIISKSSSMFHIMKHNHYSSRFGSKLGLQCIGMHEKGIIFNNNPELWKTTRPFFMKALSGPGLVRMVTVCAESLKTHLDRLEEVTNESGYVDVLTLLRRVMLDTSNTLFLRIPLDESAIVVKIQGYFDAWQALLIKPDIFFKISWLYKKYEKSVKDLKDAIEVLIAEKRCRISTEEKLEECMDFATELILAEKRGDLTRENVNQCILEMLIAAPDTMSVSLFFMLFLIAKHPNVEEAIIKEIQTVIGERDIKIDDIQKLKVMENFIYESMRYQPVVDLVMRKALEDDVIDGYPVKKGTNIILNIGRMHRLEFFPKPNEFTLENFAKNVPYRYFQPFGFGPRGCAGKYIAMVMMKAILVTLLRRFHVKTLQGQCVESIQKIHDLSLHPDETKNMLEMIFTPRNSDRCLEH

B2: Thr364: "a CYP19A1 polypeptide having a threonine at amino acid residue 364. This polypeptide (Met(364)Thr) would be considered an allozyme" (protein, UniProt P11511 1-503, looked up, variant M364T)
Aromatase: B1 Aromatase with C264R, M364T
Apparent Km [2]: elevated

— patent US20070037177A1, “CYP19A1 polymorphisms” (priority 2005, published 2007)
